Assay results as given in the supplement of paper PMC9112550, “Optimization of the antimicrobial peptide Bac7 by deep mutational scanning” (BMC Biology, 2022).

Test system: Escherichia coli TOP10
Assay: shrunken log2 fold change of peptide-encoding DNA abundance (4.5 h post-induction vs induction); higher = less antimicrobial activity (less host growth inhibition)
Details: time post-induction: 4.5 h; library: site-saturation at positions 5, 18, 19, 20
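Note: peptides expressed intracellularly from a pBAD plasmid library in pooled LB shake-flask culture, induced with 0.3% L-arabinose, DNA abundance read by NGS, three biological replicates, DESeq2 with apeglm shrinkage.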

With RRIRLRPPRLPRPRPRPHEGPRP the “shrunken log2 fold change” value was -0.00992.
RRIRPRPPRLPRPRPRPATRPRP was tested, and the “shrunken log2 fold change” value was 0.442.
For RRIRLRPPRLPRPRPRPIHMPRP, the “shrunken log2 fold change” value was -0.0933.
With RRIRSRPPRLPRPRPRPPFTPRP the “shrunken log2 fold change” value was -0.00795.
RRIRFRPPRLPRPRPRPHSRPRP was tested, and the “shrunken log2 fold change” value was -0.112.
RRIRHRPPRLPRPRPRPSQKPRP was tested, and the “shrunken log2 fold change” value was -0.0338.
With RRIRGRPPRLPRPRPRPFKGPRP the “shrunken log2 fold change” value was -0.00192.
For RRIRHRPPRLPRPRPRPWDFPRP, the “shrunken log2 fold change” value was -0.0612.
With RRIRSRPPRLPRPRPRPIAWPRP the “shrunken log2 fold change” value was -0.0861.
RRIRKRPPRLPRPRPRPHPDPRP was tested, and the “shrunken log2 fold change” value was -0.0313.
With RRIRVRPPRLPRPRPRPHMNPRP the “shrunken log2 fold change” value was -0.499.
RRIRLRPPRLPRPRPRPCNRPRP was tested, and the “shrunken log2 fold change” value was 0.214.
For RRIRTRPPRLPRPRPRPTEIPRP, the “shrunken log2 fold change” value was -0.119.
With RRIRKRPPRLPRPRPRPWWHPRP the “shrunken log2 fold change” value was 0.047.
In the case of RRIRSRPPRLPRPRPRPIIGPRP, the “shrunken log2 fold change” value is reported as -0.276.
RRIRKRPPRLPRPRPRPLYRPRP was tested, and the “shrunken log2 fold change” value was -0.0664.
With RRIRSRPPRLPRPRPRPPYDPRP the “shrunken log2 fold change” value was -0.397.
With RRIRDRPPRLPRPRPRPIRHPRP the “shrunken log2 fold change” value was -0.0425.
In the case of RRIRVRPPRLPRPRPRPSQDPRP, the “shrunken log2 fold change” value is reported as -0.221.
For RRIRGRPPRLPRPRPRPMEHPRP, the “shrunken log2 fold change” value was 0.171.
RRIRTRPPRLPRPRPRPWSVPRP was tested, and the “shrunken log2 fold change” value was -0.199.
For RRIRGRPPRLPRPRPRPAFPPRP, the “shrunken log2 fold change” value was 0.313.
With RRIRYRPPRLPRPRPRPPYIPRP the “shrunken log2 fold change” value was -0.496.
With RRIRLRPPRLPRPRPRPLQIPRP the “shrunken log2 fold change” value was -0.092.
For RRIRQRPPRLPRPRPRPQMCPRP, the “shrunken log2 fold change” value was 0.109.
In the case of RRIRYRPPRLPRPRPRPACPPRP, the “shrunken log2 fold change” value is reported as -0.0352.
With RRIRVRPPRLPRPRPRPMCTPRP the “shrunken log2 fold change” value was -0.0103.
With RRIRERPPRLPRPRPRPAAGPRP the “shrunken log2 fold change” value was 0.315.
In the case of RRIRFRPPRLPRPRPRPRETPRP, the “shrunken log2 fold change” value is reported as 0.0137.
RRIRDRPPRLPRPRPRPYLTPRP was tested, and the “shrunken log2 fold change” value was -0.0558.
For RRIRFRPPRLPRPRPRPVNVPRP, the “shrunken log2 fold change” value was -0.404.
With RRIRIRPPRLPRPRPRPWPAPRP the “shrunken log2 fold change” value was -0.768.
RRIRARPPRLPRPRPRPYPPPRP was tested, and the “shrunken log2 fold change” value was -0.129.
For RRIRNRPPRLPRPRPRPPHQPRP, the “shrunken log2 fold change” value was 0.0134.
For RRIRCRPPRLPRPRPRPPFFPRP, the “shrunken log2 fold change” value was 0.449.
In the case of RRIRHRPPRLPRPRPRPYLMPRP, the “shrunken log2 fold change” value is reported as -0.554.
With RRIRSRPPRLPRPRPRPLPLPRP the “shrunken log2 fold change” value was -0.0835.
In the case of RRIRYRPPRLPRPRPRPAPSPRP, the “shrunken log2 fold change” value is reported as -0.0165.
In the case of RRIRGRPPRLPRPRPRPQGSPRP, the “shrunken log2 fold change” value is reported as -0.0808.
With RRIRDRPPRLPRPRPRPLGVPRP the “shrunken log2 fold change” value was 0.577.
RRIRKRPPRLPRPRPRPLIWPRP was tested, and the “shrunken log2 fold change” value was 0.761.
With RRIRPRPPRLPRPRPRPKKFPRP the “shrunken log2 fold change” value was 0.0281.
RRIRHRPPRLPRPRPRPFDPPRP was tested, and the “shrunken log2 fold change” value was -0.101.
RRIRRRPPRLPRPRPRPVHIPRP was tested, and the “shrunken log2 fold change” value was -0.0107.
In the case of RRIRWRPPRLPRPRPRPIYRPRP, the “shrunken log2 fold change” value is reported as 0.0155.
In the case of RRIRARPPRLPRPRPRPHHHPRP, the “shrunken log2 fold change” value is reported as -0.469.
For RRIRMRPPRLPRPRPRPLVEPRP, the “shrunken log2 fold change” value was 2.17.
In the case of RRIRIRPPRLPRPRPRPLTCPRP, the “shrunken log2 fold change” value is reported as -0.174.
RRIRCRPPRLPRPRPRPPLPPRP was tested, and the “shrunken log2 fold change” value was 0.539.
In the case of RRIRRRPPRLPRPRPRPKVMPRP, the “shrunken log2 fold change” value is reported as 0.16.
For RRIRCRPPRLPRPRPRPMLFPRP, the “shrunken log2 fold change” value was 0.545.
In the case of RRIRLRPPRLPRPRPRPVNEPRP, the “shrunken log2 fold change” value is reported as -0.0825.
In the case of RRIRIRPPRLPRPRPRPAMYPRP, the “shrunken log2 fold change” value is reported as -0.733.
In the case of RRIRSRPPRLPRPRPRPCFQPRP, the “shrunken log2 fold change” value is reported as -0.0966.
RRIRNRPPRLPRPRPRPWHAPRP was tested, and the “shrunken log2 fold change” value was -0.0713.
RRIRARPPRLPRPRPRPEARPRP was tested, and the “shrunken log2 fold change” value was 1.42.
In the case of RRIRPRPPRLPRPRPRPAYFPRP, the “shrunken log2 fold change” value is reported as -0.16.
For RRIRLRPPRLPRPRPRPRCWPRP, the “shrunken log2 fold change” value was 0.371.
With RRIRVRPPRLPRPRPRPIMQPRP the “shrunken log2 fold change” value was -0.149.
With RRIRYRPPRLPRPRPRPNWSPRP the “shrunken log2 fold change” value was 0.0306.
With RRIRKRPPRLPRPRPRPVWCPRP the “shrunken log2 fold change” value was -0.0673.
In the case of RRIRDRPPRLPRPRPRPFIFPRP, the “shrunken log2 fold change” value is reported as -0.0526.
In the case of RRIRNRPPRLPRPRPRPYQLPRP, the “shrunken log2 fold change” value is reported as 0.327.
With RRIRIRPPRLPRPRPRPWWEPRP the “shrunken log2 fold change” value was -0.109.
RRIRQRPPRLPRPRPRPDPYPRP was tested, and the “shrunken log2 fold change” value was 0.032.
With RRIRYRPPRLPRPRPRPRGTPRP the “shrunken log2 fold change” value was 0.173.
RRIRCRPPRLPRPRPRPNDFPRP was tested, and the “shrunken log2 fold change” value was -0.241.
For RRIRSRPPRLPRPRPRPNVDPRP, the “shrunken log2 fold change” value was 0.0085.
RRIRARPPRLPRPRPRPAQGPRP was tested, and the “shrunken log2 fold change” value was 0.373.
RRIRTRPPRLPRPRPRPQTLPRP was tested, and the “shrunken log2 fold change” value was -0.278.
RRIRDRPPRLPRPRPRPIAMPRP was tested, and the “shrunken log2 fold change” value was 0.384.
In the case of RRIRPRPPRLPRPRPRPHLKPRP, the “shrunken log2 fold change” value is reported as -0.000265.
In the case of RRIRIRPPRLPRPRPRPALPPRP, the “shrunken log2 fold change” value is reported as -0.0671.
For RRIRHRPPRLPRPRPRPRIAPRP, the “shrunken log2 fold change” value was 0.0721.
For RRIRCRPPRLPRPRPRPKLQPRP, the “shrunken log2 fold change” value was 0.155.
In the case of RRIRFRPPRLPRPRPRPLGSPRP, the “shrunken log2 fold change” value is reported as 0.192.
In the case of RRIRYRPPRLPRPRPRPHPQPRP, the “shrunken log2 fold change” value is reported as -0.0957.
For RRIRIRPPRLPRPRPRPFESPRP, the “shrunken log2 fold change” value was -0.218.
With RRIRKRPPRLPRPRPRPRRMPRP the “shrunken log2 fold change” value was 0.488.
RRIRRRPPRLPRPRPRPQLLPRP was tested, and the “shrunken log2 fold change” value was 0.537.
RRIRERPPRLPRPRPRPMTCPRP was tested, and the “shrunken log2 fold change” value was -0.00926.
With RRIRGRPPRLPRPRPRPNGRPRP the “shrunken log2 fold change” value was 0.419.
With RRIRQRPPRLPRPRPRPMPDPRP the “shrunken log2 fold change” value was -0.0292.
RRIRCRPPRLPRPRPRPADEPRP was tested, and the “shrunken log2 fold change” value was 0.431.
In the case of RRIRIRPPRLPRPRPRPWHVPRP, the “shrunken log2 fold change” value is reported as -0.0239.
For RRIRIRPPRLPRPRPRPAVTPRP, the “shrunken log2 fold change” value was -0.322.
For RRIRNRPPRLPRPRPRPLDWPRP, the “shrunken log2 fold change” value was -0.0554.
For RRIRCRPPRLPRPRPRPCDCPRP, the “shrunken log2 fold change” value was -0.139.
In the case of RRIRTRPPRLPRPRPRPMKFPRP, the “shrunken log2 fold change” value is reported as -0.116.
For RRIRMRPPRLPRPRPRPWNTPRP, the “shrunken log2 fold change” value was 0.000609.
For RRIRVRPPRLPRPRPRPQCYPRP, the “shrunken log2 fold change” value was -0.189.
For RRIRPRPPRLPRPRPRPHQHPRP, the “shrunken log2 fold change” value was 2.05.
RRIRQRPPRLPRPRPRPWHPPRP was tested, and the “shrunken log2 fold change” value was -0.0543.
RRIRIRPPRLPRPRPRPGELPRP was tested, and the “shrunken log2 fold change” value was -0.0665.
RRIRNRPPRLPRPRPRPIYWPRP was tested, and the “shrunken log2 fold change” value was 0.0553.
RRIRNRPPRLPRPRPRPKYIPRP was tested, and the “shrunken log2 fold change” value was -0.667.
With RRIRQRPPRLPRPRPRPKMIPRP the “shrunken log2 fold change” value was -0.231.
In the case of RRIRVRPPRLPRPRPRPTYMPRP, the “shrunken log2 fold change” value is reported as -0.445.
With RRIRWRPPRLPRPRPRPSPFPRP the “shrunken log2 fold change” value was -0.245.
For RRIRLRPPRLPRPRPRPAVVPRP, the “shrunken log2 fold change” value was 0.028.
RRIRRRPPRLPRPRPRPGQEPRP was tested, and the “shrunken log2 fold change” value was 0.777.
RRIRDRPPRLPRPRPRPNDTPRP was tested, and the “shrunken log2 fold change” value was 0.0133.
For RRIRQRPPRLPRPRPRPDYGPRP, the “shrunken log2 fold change” value was -0.159.
RRIRPRPPRLPRPRPRPVMDPRP was tested, and the “shrunken log2 fold change” value was 0.0311.
For RRIRPRPPRLPRPRPRPDHAPRP, the “shrunken log2 fold change” value was 0.218.
With RRIRPRPPRLPRPRPRPCYFPRP the “shrunken log2 fold change” value was -0.0997.
For RRIRVRPPRLPRPRPRPEIFPRP, the “shrunken log2 fold change” value was 0.00503.
In the case of RRIRSRPPRLPRPRPRPFQYPRP, the “shrunken log2 fold change” value is reported as -0.177.
In the case of RRIRWRPPRLPRPRPRPGWNPRP, the “shrunken log2 fold change” value is reported as 0.238.
